Experiment in all cases: cell-based or functional assay
The target of one assay is human GLP-1 receptor (human, UniProt P43220 24-463).
The next assay has as its target T1, human GIP receptor (human, UniProt P48546 22-466).
T1 sequence (looked up): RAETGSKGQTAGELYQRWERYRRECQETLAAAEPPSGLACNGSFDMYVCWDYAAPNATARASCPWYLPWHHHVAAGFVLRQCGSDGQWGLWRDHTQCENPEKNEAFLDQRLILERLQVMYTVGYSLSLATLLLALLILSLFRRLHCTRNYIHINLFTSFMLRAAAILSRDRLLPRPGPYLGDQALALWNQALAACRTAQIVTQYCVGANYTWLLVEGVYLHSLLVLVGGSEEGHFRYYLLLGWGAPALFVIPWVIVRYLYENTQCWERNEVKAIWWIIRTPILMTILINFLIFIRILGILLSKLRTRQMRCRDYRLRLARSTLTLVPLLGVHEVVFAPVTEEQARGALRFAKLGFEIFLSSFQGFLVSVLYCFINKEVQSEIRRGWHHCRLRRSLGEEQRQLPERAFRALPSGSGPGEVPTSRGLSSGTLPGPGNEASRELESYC

A further assay has as its target human GCG receptor (human, UniProt P47871 26-477).

Positions of bridges follow the written chain, without caps; N, C: chain ends. Non-standard residues stand in square brackets, D forms with d. No end group written: not given here. *: point of attachment. Acetyl(2-(4-imidazolyl)) = O=C(Cc1c[nH]cn1)*; Aib = CC(C)(N)C(=O)O Bounds are passed on as bounds.

Chain of human GCG receptor (P47871 26-477): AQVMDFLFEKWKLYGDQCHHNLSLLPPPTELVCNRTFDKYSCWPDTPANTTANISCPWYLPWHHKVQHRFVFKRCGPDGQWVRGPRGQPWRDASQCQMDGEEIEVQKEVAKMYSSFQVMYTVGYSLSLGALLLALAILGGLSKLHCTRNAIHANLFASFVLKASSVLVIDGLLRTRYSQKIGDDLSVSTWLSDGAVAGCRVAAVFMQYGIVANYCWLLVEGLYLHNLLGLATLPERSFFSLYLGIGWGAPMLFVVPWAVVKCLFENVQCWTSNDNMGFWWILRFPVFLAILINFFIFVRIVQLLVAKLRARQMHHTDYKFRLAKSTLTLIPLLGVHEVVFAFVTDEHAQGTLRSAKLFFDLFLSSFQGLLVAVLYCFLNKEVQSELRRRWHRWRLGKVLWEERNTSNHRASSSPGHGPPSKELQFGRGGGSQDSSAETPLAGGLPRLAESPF

For {Acetyl(2-(4-imidazolyl))}-[Aib]QGTFTSDYSICMDEIHQKDFVNWLLNTK (bridge 15-19) [triple agonist of SEQ ID NO: 49], in the assay with human GLP-1 receptor, the “In vitro Activity Compared to Native Peptide (%) vs. GLP-1” value came to 29.8%. Also, the “In vitro Activity Compared to Native Peptide (%) vs. GIP” value with human GIP receptor amounted to 3.3%. Further, the “In vitro Activity Compared to Native Peptide (%) vs. Glucagon” value in the assay with human GCG receptor was less than 0.1%.
On to Y[Aib]QGTFTSDYSKYLDEKRAKEFVQWLLDHHPSSGQPPPSC (bridge 16-20) [triple agonist of SEQ ID NO: 42], for which the “In vitro Activity Compared to Native Peptide (%) vs. GLP-1” value in the assay with human GLP-1 receptor came out at 33.9%. In the assay with human GIP receptor, the “In vitro Activity Compared to Native Peptide (%) vs. GIP” value turned out to be 7.8%. For the same molecule, in the assay with human GCG receptor, the “In vitro Activity Compared to Native Peptide (%) vs. Glucagon” value was found to be 206%.
In the case of HGQGTFTSDCSKQLDGQAAQEFVAWLLAGGPSSGAPPPS [triple agonist of SEQ ID NO: 44], the “In vitro Activity Compared to Native Peptide (%) vs. GLP-1” value in the assay with human GLP-1 receptor was 1.3%. The “In vitro Activity Compared to Native Peptide (%) vs. GIP” value in the assay with human GIP receptor was less than 0.1%. Besides, the “In vitro Activity Compared to Native Peptide (%) vs. Glucagon” value with human GCG receptor is less than 0.1%.
As for HGQGTFTSDCSKYLDEQHAQEFVAWLLAGGPSSGAPPPS [triple agonist of SEQ ID NO: 46], the “In vitro Activity Compared to Native Peptide (%) vs. GLP-1” value in the assay with human GLP-1 receptor stood at 1.4%. The “In vitro Activity Compared to Native Peptide (%) vs. GIP” value with human GIP receptor is less than 0.1%. Besides, the “In vitro Activity Compared to Native Peptide (%) vs. Glucagon” value with human GCG receptor is less than 0.1%.
For the molecule HGQGTFTSDCSKYLDGQRAQDFVNWLLAGGPSSGAPPPS [triple agonist of SEQ ID NO: 48], the “In vitro Activity Compared to Native Peptide (%) vs. GLP-1” value in the assay with human GLP-1 receptor was 1.5%. Also, the “In vitro Activity Compared to Native Peptide (%) vs. GIP” value with human GIP receptor was less than 0.1%. Besides, the “In vitro Activity Compared to Native Peptide (%) vs. Glucagon” value with human GCG receptor is less than 0.1%.
Turning to HGQGTFTSDCSKYMDGQAAQDFVAWLLAGGPSSGAPPPS [triple agonist of SEQ ID NO: 45], in the assay with human GLP-1 receptor, the “In vitro Activity Compared to Native Peptide (%) vs. GLP-1” value was determined as 6.6%. In addition, the “In vitro Activity Compared to Native Peptide (%) vs. GIP” value with human GIP receptor is less than 0.1%. The “In vitro Activity Compared to Native Peptide (%) vs. Glucagon” value with human GCG receptor was less than 0.1%.
Turning to HGQGTFTSDCSKYLDGQRAQEFVAWLLAGGPSSGAPPPS [triple agonist of SEQ ID NO: 47], the “In vitro Activity Compared to Native Peptide (%) vs. GLP-1” value with human GLP-1 receptor is 2.4%. Moreover, the “In vitro Activity Compared to Native Peptide (%) vs. GIP” value with human GIP receptor is less than 0.1%. The “In vitro Activity Compared to Native Peptide (%) vs. Glucagon” value in the assay with human GCG receptor was less than 0.1%.
As for Y[Aib]QGTFTSDYSKYLDEKRAKEFVQWLLDHHCSSGQPPPS (bridge 16-20) [triple agonist of SEQ ID NO: 43], in the assay with human GLP-1 receptor, the “In vitro Activity Compared to Native Peptide (%) vs. GLP-1” value stood at 12.6%. The “In vitro Activity Compared to Native Peptide (%) vs. GIP” value with human GIP receptor was determined as 3.7%. In addition, in the assay with human GCG receptor, the “In vitro Activity Compared to Native Peptide (%) vs. Glucagon” value is 88.4%.
As for H[Aib]QGTFTSDYSKYLDECRQKEFVQWLLNGGPSSGAPPPSG (bridge 16-20) [triple agonist of SEQ ID NO: 37], the “In vitro Activity Compared to Native Peptide (%) vs. GLP-1” value in the assay with human GLP-1 receptor was 236%. Also, the “In vitro Activity Compared to Native Peptide (%) vs. GIP” value in the assay with human GIP receptor is 2.2%. Besides, in the assay with human GCG receptor, the “In vitro Activity Compared to Native Peptide (%) vs. Glucagon” value was 6.21%.
In the same order, the values of H[Aib]QGTFTSDKSKYLDECAAQDFVQWLLDGGPSSGAPPPS [triple agonist of SEQ ID NO: 41] are 34.3%, less than 0.1% and less than 0.1%.
In the same order, the values of H[Aib]QGTFTSDYSKYLDEKRQKEFVNWLLAQKC (bridge 16-20) [triple agonist of SEQ ID NO: 34] are 19.1%, 0.6% and 0.92%.
In the case of H[Aib]QGTFTSDYSKYLDGQHAQCFVAWLLAGGGPSSGAPPPS [triple agonist of SEQ ID NO: 39], in the assay with human GLP-1 receptor, the “In vitro Activity Compared to Native Peptide (%) vs. GLP-1” value turned out to be 13.9%. Also, the “In vitro Activity Compared to Native Peptide (%) vs. GIP” value in the assay with human GIP receptor was less than 0.1%. Moreover, in the assay with human GCG receptor, the “In vitro Activity Compared to Native Peptide (%) vs. Glucagon” value was determined as 0.53%.
The like results for H[Aib]QGTFTSDYSKYLDEKRAKEFVQWLLDHHPSSGQPPPSC (bridge 16-20) [triple agonist of SEQ ID NO: 50] were, in that order, 67.4%, 2.7% and 50.5%.
Take H[Aib]QGTFTSDVSSYLLGQQQKEFIAWLVKGGGPSSGAPPPSC (ends and bridges not checked) [triple agonist of SEQ ID NO: 5]: in the assay with human GLP-1 receptor, the “In vitro Activity Compared to Native Peptide (%) vs. GLP-1” value turned out to be 42.1%. The “In vitro Activity Compared to Native Peptide (%) vs. GIP” value with human GIP receptor is less than 0.1%. The “In vitro Activity Compared to Native Peptide (%) vs. Glucagon” value with human GCG receptor is less than 0.1%.
Turning to H[Aib]QGTFTSDYSKYLCEKRQKEFVQWLLNGGPSSGAPPPSG (bridge 16-20) [triple agonist of SEQ ID NO: 36], the “In vitro Activity Compared to Native Peptide (%) vs. GLP-1” value with human GLP-1 receptor was 37.4%. Further, the “In vitro Activity Compared to Native Peptide (%) vs. GIP” value with human GIP receptor worked out at 0.2%. In the assay with human GCG receptor, the “In vitro Activity Compared to Native Peptide (%) vs. Glucagon” value was found to be 0.39%.
In the case of [Acetyl(2-(4-imidazolyl))][Aib]QGTFTSDKSSYLDERAAQDFVQWLLDGGPSSGAPPPSS [triple agonist of SEQ ID NO: 38], the “In vitro Activity Compared to Native Peptide (%) vs. GLP-1” value with human GLP-1 receptor was found to be 2.3%.
Take H[Aib]QGTFTSDYSKYLDEKRQKEFVQWLLNTC (bridge 16-20) [triple agonist of SEQ ID NO: 51]: the “In vitro Activity Compared to Native Peptide (%) vs. GLP-1” value in the assay with human GLP-1 receptor was determined as 14.4%. Also, the “In vitro Activity Compared to Native Peptide (%) vs. GIP” value with human GIP receptor stood at 0.1%. The “In vitro Activity Compared to Native Peptide (%) vs. Glucagon” value with human GCG receptor stood at 2%.
Regarding H[Aib]QGTFTSDVSSYLDGQAAKEFIAWLVKGC [triple agonist of SEQ ID NO: 1], the “In vitro Activity Compared to Native Peptide (%) vs. GLP-1” value with human GLP-1 receptor is 3.2%. Further, the “In vitro Activity Compared to Native Peptide (%) vs. GIP” value with human GIP receptor is less than 0.1%. In the assay with human GCG receptor, the “In vitro Activity Compared to Native Peptide (%) vs. Glucagon” value was less than 0.1%.
H[Aib]QGTFTSDVSSYLLGQQQKEFIAWLVKGC [triple agonist of SEQ ID NO: 4]: the “In vitro Activity Compared to Native Peptide (%) vs. GLP-1” value with human GLP-1 receptor came out at 8.5%. Further, in the assay with human GIP receptor, the “In vitro Activity Compared to Native Peptide (%) vs. GIP” value is less than 0.1%. The “In vitro Activity Compared to Native Peptide (%) vs. Glucagon” value with human GCG receptor was less than 0.1%.
Take H[Aib]QGTFTSDYSIAMDEIHQKDFVNWLLNTKC (bridge 16-20) [triple agonist of SEQ ID NO: 35]: the “In vitro Activity Compared to Native Peptide (%) vs. GLP-1” value in the assay with human GLP-1 receptor is 7.5%. Moreover, the “In vitro Activity Compared to Native Peptide (%) vs. GIP” value in the assay with human GIP receptor turned out to be 1.3%. Also, the “In vitro Activity Compared to Native Peptide (%) vs. Glucagon” value in the assay with human GCG receptor was less than 0.1%.
In the same order, the values of H[Aib]QGTFTSDKSKYLDERACQDFVQWLLDGGPSSGAPPPS [triple agonist of SEQ ID NO: 40] are 75.2%, less than 0.1% and less than 0.1%.

The values above are taken from US20230118307A1, “THERAPEUTIC USE OF LONG-ACTING CONJUGATE OF TRIPLE AGONIST HAVING ACTIVITIES TO ALL OF GLUCAGON/GLP-1/GIP RECEPTORS FOR LUNG DISEASE” (HANMI PHARM. CO., LTD., priority 2020, published 2023).
